The text below walks through data of US20250057951A1, “DISCERNIBLE CELL SURFACE PROTEIN VARIANTS OF CD117 FOR USE IN CELL THERAPY” (UNIVERSITÄT BASEL, priority 2021, published 2025).

One test relates to CD117. As to the kind of experiment: Blocking of SCF-induced CD117 phosphorylation (Tyr719 ELISA), wild type TF-1 cells. To be noted: 0.5 ug/mL antibody or 500 nM avapritinib; 100 ng/ml SCF 5 minutes. It counts as cell-based, human.
The subject of the next test is variants of CD117. As to the kind of experiment: Blocking of SCF-induced CD117 phosphorylation (Tyr719 ELISA), TF-1 cells with CD117 variants. The format is cell-based, human. As to conditions: 0.5 μg/ml antibody 30 minutes; 100 ng/ml SCF 5 minutes; same for E73K, E73Y, S123F (data not shown). (In an ELISA, binding on a coated surface is turned into a signal by an enzyme label.)

Another test has as its system human HSCs. As to the kind of experiment: HSC depletion in NBSGW mice engrafted with human HSPCs. The format is in vivo. To be noted: 25 mg/kg i.v. days 8, 10, 12, 14; analysis 16 weeks later; vs isotype control; live/hCD45+/CD34+/CD38−/CD45RA−/CD90+. The protocol:
(§1) Depletion of human HSCs in mice using various mAbs was adapted from Pang et al. (Blood (2019) 133:2069-78).
NBSGW mice (Jackson Laboratories) were injected with 1 Mio HSPCs. 8, 10, 12 and 14 days after cell injection mice received 25 mg/kg antibody Refmab #1-Bert per dose i.v. 16 weeks later the mice were euthanized and blood, spleen and bone marrow were analysed by FACS. […] HSCs were identified by FACS as live/hCD45+/CD34+/CD38−/CD45RA−/CD90+.

The test system of another test is CD117+ myeloid cells. As to the kind of experiment: Depletion experiment in NSG mice with E73K gene-edited HSPCs. It counts as in vivo. To be noted: 25 mg/kg i.v. days 8, 10, 12, 14; 16 weeks; vs isotype control. The protocol: In another experiment, NSG mice (Jackson Laboratories) were sub-lethally irradiated one day before injection with 1 Mio gene-edited HSPCs carrying a E73K variant of CD117. 8, 10, 12 and 14 days after cell injection mice received 25 mg/kg antibody Refmab #1-Bert or 25 mg/kg isotope control antibody i.v. per dose. 16 weeks later the mice were euthanized, and blood, spleen and bone marrow were analyzed by FACS.
CD117+ myeloid cells were identified by FACS as live/hCD45+/CD33+/CD117+. […] Clone 104D2 was used as an expression control. Cells were classified as not edited (104D2+ and SR-1+) or E73K edited (104D2+ but SR-1−) based on double staining with anti-CD117 clone SR-1 and anti-CD117 clone 104D2.

In the next test the test system is CD34+ progenitor cells. As to the kind of experiment: Additional HSC depletion experiment in NBSGW mice with edited HSPCs. It counts as in vivo. As to conditions: 4 mg/kg i.v. days 7, 9, 11, 12, 16 weeks, vs isotype control. The protocol:
as §1
NBSGW mice (Jackson Laboratories) were injected with 1 Mio HSPCs from 2 different donors carrying a E73K, S123K or D121K variant of CD117. Control groups of mice received unedited electroporation control HSPCs. 7, 9, 11 and 12 days after cell injection mice received 4 mg/kg antibody Refmab #1-Bert per dose i.v. 16 weeks later the mice were euthanized and blood, spleen and bone marrow were analyzed by FACS. To identify unedited and edited cells the CD117-specific antibody clones 104D2 and SR-1 were used. […] Cells were classified as unedited (104D2+ and SR-1+) or edited (104D2+ but SR-1−) based on double staining with both anti-CD117 clones.

B1: Refmab #1-Bert: improved version of Refmab #1, VH SEQ ID 15, VL SEQ ID 63 (antibody, V domains shown)
VH: QVQLQQPGAELVKPGASVKMSCKASGYTFTSYNMHWVKQTPGQGLEWIGVIYSGNGDTSYNQKFKGKATLTADKSSSTAYMQINSLTSEDSAVYYCARERDTRFGNWGQGTLVTVSA
VL: EIVLTQSPSSLSASVGDRVTITCRASESVDIYGESFMHWYQQKPGKAPKLLIYLASNLESGVPSRFSGSGSGTDFTLTISSLQPEDFATYYCQQNKEEPYTFGQGTKLEIKRTV
modifications: Refmab #1 VH
On to B1, for which the “blocking of SCF-induced phosphorylation, wild type cells” value in the test with CD117 is “blocked”. Also, the “blocking of SCF-dependent CD117 phosphorylation, D121K and S123K variants” value in the test on variants of CD117 is reported as “unaffected”. Also, the “bone marrow HSC depletion” value in the test on human HSCs is “in vivo depletion of HSCs”. Further, in the test on CD117+ myeloid cells, the “effect on E73K variant CD117+ myeloid cells in bone marrow” value is recorded as “enrichment of E73K variant cells” and the “effect on unedited CD117+ myeloid cells in bone marrow” value is reported as “depletion of unedited cells”. The “effect on E73K, D121K and S123K-edited cells” value with CD34+ progenitor cells is “enrichment of E73K, D121K and S123K-edited variant cells”. In addition, the “effect on unedited CD34+ progenitor cells” value with CD34+ progenitor cells (live/hCD45+/CD34+/CD38−) is reported as “depletion of unedited CD34+ progenitor cells”.
